Reference: the supplement of paper PMC10065799, “High-throughput profiling of sequence recognition by tyrosine kinases and SH2 domains using bacterial peptide display” (eLife, 2023)

Experiments:
[1] = system: AncSZ; test: phosphorylation enrichment, bacterial display (enrichment ratio); higher = better substrate or ligand; peptides without Tyr show the background
[2] = molecular target: EPHB1 (UniProt P54762); test: as above
[3] = molecular target: EPHB2 (UniProt P29323); test: as above
[4] = molecular target: FGFR1 (UniProt P11362); test: as above
[5] = molecular target: FGFR3 (UniProt P22607); test: as above
[6] = system: Fer (mouse); test: as above
[7] = molecular target: Fes (UniProt P07332); test: as above
[8] = molecular target: Fyn (UniProt P06241); test: as above
[9] = molecular target: Hck (UniProt P08631); test: as above
[10] = molecular target: Jak2 (UniProt O60674); test: as above
[11] = molecular target: MERTK (UniProt Q12866); test: as above
[12] = system: c-Abl (mouse); test: as above
[13] = system: c-Src; test: as above
[14] = molecular target: Grb2 SH2 (UniProt P62993); test: SH2 binding enrichment of the phosphorylated peptide, bacterial display (enrichment ratio); higher = better substrate or ligand; peptides without Tyr show the background
[15] = molecular target: SHP2-C SH2; test: as above
[16] = molecular target: c-Src SH2; test: as above
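Throughout, for SH2 binding enrichment of the phosphorylated peptide, bacterial display: peptide library displayed on the E. coli surface as eCPX fusions, selected cells deep-sequenced, score is each peptide's frequency after selection divided by its frequency in the input.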
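Throughout, for phosphorylation enrichment, bacterial display: 11-residue human phosphosite peptides and single-mutation variants displayed on the E. coli surface, counted by deep sequencing, each peptide's frequency after selection divided by its frequency in the unselected input library; frequency after pTyr selection over input frequency; kinase dosed for 20-30% of maximal phosphorylation in three min.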

Sequence of Fyn (P06241 whole entry, looked up): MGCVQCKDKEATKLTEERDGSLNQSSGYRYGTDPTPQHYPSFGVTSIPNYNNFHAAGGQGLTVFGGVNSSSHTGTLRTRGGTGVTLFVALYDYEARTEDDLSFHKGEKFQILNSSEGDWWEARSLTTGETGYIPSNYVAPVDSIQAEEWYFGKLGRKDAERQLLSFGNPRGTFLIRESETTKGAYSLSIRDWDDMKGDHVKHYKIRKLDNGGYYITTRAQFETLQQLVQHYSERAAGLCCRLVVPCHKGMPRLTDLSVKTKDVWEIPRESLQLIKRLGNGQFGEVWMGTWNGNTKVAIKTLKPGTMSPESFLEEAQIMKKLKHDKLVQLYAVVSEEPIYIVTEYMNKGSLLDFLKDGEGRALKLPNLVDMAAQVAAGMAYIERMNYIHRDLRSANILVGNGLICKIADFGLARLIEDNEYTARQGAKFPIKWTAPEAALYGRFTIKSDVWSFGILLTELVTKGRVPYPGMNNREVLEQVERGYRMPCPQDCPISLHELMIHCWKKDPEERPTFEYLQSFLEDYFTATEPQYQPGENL
Sequence of MERTK (Q12866 whole entry, looked up): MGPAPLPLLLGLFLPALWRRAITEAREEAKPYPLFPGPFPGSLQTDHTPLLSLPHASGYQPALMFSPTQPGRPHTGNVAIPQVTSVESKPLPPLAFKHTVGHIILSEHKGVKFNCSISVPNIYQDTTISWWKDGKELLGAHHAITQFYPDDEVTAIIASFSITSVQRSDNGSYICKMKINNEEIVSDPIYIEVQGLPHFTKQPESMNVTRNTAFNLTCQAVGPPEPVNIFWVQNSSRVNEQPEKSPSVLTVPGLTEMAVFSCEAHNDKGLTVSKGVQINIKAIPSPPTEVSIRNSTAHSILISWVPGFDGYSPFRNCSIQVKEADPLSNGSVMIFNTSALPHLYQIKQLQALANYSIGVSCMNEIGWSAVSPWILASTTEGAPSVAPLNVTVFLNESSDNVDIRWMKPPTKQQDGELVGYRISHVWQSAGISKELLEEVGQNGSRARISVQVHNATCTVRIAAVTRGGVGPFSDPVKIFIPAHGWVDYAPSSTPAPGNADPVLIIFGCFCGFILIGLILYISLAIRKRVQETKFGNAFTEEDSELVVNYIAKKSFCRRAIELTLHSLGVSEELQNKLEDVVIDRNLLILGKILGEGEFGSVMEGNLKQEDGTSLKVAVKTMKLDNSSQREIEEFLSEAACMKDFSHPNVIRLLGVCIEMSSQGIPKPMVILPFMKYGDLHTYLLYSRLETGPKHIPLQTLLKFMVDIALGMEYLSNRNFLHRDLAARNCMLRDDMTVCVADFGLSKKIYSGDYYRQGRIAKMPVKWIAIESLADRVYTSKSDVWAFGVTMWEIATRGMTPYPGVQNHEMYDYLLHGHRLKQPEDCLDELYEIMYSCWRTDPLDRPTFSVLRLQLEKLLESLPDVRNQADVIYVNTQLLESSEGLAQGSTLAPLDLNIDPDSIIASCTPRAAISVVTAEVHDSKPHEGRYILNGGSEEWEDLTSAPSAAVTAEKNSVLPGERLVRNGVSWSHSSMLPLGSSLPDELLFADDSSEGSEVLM
Sequence of Fes (P07332 whole entry, looked up): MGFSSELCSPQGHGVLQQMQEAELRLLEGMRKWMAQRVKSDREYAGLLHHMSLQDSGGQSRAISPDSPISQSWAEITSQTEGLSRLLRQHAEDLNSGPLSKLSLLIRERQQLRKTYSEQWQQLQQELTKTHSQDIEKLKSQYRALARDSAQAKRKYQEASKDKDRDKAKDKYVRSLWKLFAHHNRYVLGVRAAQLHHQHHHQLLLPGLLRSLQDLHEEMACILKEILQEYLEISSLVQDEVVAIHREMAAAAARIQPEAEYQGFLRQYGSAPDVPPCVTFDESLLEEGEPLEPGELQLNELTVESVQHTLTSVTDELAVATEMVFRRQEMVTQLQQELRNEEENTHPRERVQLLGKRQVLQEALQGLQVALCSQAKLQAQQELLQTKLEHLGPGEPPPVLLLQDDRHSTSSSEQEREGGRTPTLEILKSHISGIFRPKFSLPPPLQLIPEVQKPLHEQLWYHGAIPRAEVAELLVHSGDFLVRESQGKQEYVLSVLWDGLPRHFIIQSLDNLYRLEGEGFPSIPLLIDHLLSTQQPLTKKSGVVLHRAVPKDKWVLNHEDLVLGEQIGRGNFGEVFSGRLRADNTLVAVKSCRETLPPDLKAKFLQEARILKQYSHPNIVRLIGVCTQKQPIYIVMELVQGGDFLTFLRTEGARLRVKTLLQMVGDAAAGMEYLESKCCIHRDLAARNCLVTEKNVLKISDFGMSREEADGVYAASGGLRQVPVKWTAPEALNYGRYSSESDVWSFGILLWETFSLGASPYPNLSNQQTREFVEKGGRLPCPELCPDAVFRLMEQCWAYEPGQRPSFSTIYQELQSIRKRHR
Sequence of EPHB1 (P54762 whole entry, looked up): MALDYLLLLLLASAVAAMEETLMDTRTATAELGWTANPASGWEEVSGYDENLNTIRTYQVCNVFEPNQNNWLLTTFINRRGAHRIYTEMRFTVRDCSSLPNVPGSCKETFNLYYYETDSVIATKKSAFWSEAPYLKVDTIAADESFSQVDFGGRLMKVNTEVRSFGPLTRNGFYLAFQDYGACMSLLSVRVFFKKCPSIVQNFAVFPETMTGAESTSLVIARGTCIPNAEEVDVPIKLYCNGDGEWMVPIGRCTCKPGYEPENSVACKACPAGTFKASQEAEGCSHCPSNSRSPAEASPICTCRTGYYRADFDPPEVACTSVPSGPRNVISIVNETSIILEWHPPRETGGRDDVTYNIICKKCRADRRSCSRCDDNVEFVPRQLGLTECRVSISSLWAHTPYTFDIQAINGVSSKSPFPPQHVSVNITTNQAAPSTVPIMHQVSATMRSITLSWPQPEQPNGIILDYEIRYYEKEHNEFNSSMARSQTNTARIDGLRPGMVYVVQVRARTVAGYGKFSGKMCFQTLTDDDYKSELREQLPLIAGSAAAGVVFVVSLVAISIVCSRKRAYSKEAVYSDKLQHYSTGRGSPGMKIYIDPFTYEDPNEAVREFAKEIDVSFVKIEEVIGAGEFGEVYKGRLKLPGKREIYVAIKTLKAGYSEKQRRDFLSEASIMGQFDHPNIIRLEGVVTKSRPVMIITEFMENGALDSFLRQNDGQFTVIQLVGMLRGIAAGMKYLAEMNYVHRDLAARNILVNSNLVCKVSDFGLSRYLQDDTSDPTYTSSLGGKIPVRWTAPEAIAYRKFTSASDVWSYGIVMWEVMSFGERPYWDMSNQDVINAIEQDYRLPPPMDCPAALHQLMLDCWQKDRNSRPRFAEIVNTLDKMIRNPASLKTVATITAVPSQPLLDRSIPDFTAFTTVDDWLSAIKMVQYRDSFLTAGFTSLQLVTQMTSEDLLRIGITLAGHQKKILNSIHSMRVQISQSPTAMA
Sequence of Jak2 (O60674 whole entry, looked up): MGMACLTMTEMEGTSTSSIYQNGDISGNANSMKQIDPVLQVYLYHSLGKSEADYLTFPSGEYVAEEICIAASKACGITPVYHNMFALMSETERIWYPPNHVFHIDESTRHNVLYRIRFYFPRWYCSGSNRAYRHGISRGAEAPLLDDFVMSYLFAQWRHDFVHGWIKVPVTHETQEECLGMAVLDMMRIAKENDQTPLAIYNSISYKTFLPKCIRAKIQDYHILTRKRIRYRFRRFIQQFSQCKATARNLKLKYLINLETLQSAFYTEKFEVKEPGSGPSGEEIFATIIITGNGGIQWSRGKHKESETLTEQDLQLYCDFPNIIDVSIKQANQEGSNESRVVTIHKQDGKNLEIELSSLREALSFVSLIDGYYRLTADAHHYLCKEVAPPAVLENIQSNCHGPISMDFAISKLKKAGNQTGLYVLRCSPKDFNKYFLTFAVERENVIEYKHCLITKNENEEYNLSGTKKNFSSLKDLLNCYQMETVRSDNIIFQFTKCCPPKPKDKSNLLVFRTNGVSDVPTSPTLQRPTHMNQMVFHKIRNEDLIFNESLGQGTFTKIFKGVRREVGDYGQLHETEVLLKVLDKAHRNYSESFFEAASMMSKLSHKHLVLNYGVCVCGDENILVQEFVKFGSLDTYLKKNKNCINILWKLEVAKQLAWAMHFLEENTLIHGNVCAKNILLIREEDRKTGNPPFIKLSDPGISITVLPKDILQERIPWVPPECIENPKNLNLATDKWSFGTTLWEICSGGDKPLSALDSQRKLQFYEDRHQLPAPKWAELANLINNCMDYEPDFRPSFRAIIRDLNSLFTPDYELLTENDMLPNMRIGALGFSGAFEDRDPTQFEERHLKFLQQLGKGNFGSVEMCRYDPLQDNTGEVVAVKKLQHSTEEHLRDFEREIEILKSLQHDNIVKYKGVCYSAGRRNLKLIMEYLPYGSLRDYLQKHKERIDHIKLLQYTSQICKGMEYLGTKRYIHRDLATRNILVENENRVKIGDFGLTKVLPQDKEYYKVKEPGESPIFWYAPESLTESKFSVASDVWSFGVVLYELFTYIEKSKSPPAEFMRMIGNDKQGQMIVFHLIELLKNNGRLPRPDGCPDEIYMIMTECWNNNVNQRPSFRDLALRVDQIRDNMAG
Sequence of Hck (P08631 whole entry, looked up): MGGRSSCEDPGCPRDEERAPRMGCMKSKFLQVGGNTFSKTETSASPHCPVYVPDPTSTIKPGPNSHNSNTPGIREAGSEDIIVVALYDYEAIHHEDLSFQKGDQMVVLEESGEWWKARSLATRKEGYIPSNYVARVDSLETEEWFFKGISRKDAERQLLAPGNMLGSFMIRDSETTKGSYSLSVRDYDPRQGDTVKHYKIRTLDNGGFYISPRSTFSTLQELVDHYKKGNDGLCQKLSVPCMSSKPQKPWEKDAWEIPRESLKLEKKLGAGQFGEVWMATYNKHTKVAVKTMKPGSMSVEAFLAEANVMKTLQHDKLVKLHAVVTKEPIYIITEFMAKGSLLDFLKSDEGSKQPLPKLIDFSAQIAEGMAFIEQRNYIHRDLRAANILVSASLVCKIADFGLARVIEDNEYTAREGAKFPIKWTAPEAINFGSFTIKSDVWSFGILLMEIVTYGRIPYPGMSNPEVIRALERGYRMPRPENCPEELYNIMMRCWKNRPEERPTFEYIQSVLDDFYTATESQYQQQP

Sequence	SH2 binding enrichment [14]	SH2 binding enrichment [15]	SH2 binding enrichment [16]	phosphorylation enrichment [1]	phosphorylation enrichment [2]	phosphorylation enrichment [3]	phosphorylation enrichment [4]	phosphorylation enrichment [5]	phosphorylation enrichment [6]	phosphorylation enrichment [7]	phosphorylation enrichment [8]	phosphorylation enrichment [9]	phosphorylation enrichment [10]	phosphorylation enrichment [11]	phosphorylation enrichment [12]	phosphorylation enrichment [13]
FSCLPCGRLAY [SLC52A2_Y305_Y305C]	1.46	1.34	1.54	0.832	0.431	0.485	0.481	0.54	0.351	0.772	0.425	0.431	0.724	0.688	0.584	0.45
FTYDPYSEEDP [IL2RB_Y387]	0.851	0.694	0.555	1.05	0.564	0.581	0.503	0.822	0.475	1.15	1.28	1.01	0.957	0.389	0.654	1.46
GAPATYEGDAR [CACNA1A_Y1013]	0.893	0.669	0.649	0.58	0.354	0.499	0.543	0.51	0.565	0.666	0.388	0.467	0.497	0.345	0.397	0.368
GAVGHYVLAER [HFE_Y342_M339V]	0.634	0.851	2.88	0.865	0.395	0.415	0.449	1.23	0.363	0.711	0.47	0.454	0.453	0.573	0.46	0.503
GEEIKYTLWLS [OTC_Y55_M56T]	0.725	0.644	0.379	1.35	0.704	0.605	0.538	0.882	0.712	1.4	0.418	0.529	1.21	0.512	0.873	0.443
GEETDYTPVWC [UROD_Y30]	0.864	0.748	0.687	1.62	0.587	0.791	0.655	0.92	1.02	1.43	0.535	0.556	1.04	0.468	0.785	0.552
GEPLSHTRFSL [TFRC_Y20_Y20H]	0.866	0.641	0.487	0.599	0.449	0.36	0.424	0.435	0.448	0.828	0.398	0.478	0.742	0.424	0.637	0.456
GGFNNYGFGND [HNRNPH3_Y159_YF]	0.875	0.697	0.467	0.654	0.733	0.902	0.514	0.611	0.463	0.841	0.465	0.437	0.627	0.397	0.548	0.431

Further lines, with some results ahead:

SH2 binding enrichment [14]	SH2 binding enrichment [15]	SH2 binding enrichment [16]	Sequence	phosphorylation enrichment [1]	phosphorylation enrichment [2]	phosphorylation enrichment [3]	phosphorylation enrichment [4]	phosphorylation enrichment [5]	phosphorylation enrichment [6]	phosphorylation enrichment [7]	phosphorylation enrichment [8]	phosphorylation enrichment [9]	phosphorylation enrichment [10]	phosphorylation enrichment [11]	phosphorylation enrichment [12]	phosphorylation enrichment [13]
1.1	0.933	0.762	FSAPNYCYRCG [PPP2CA_Y265]	0.656	0.498	0.455	0.446	0.45	0.327	0.564	0.458	0.414	0.501	0.423	0.452	0.382
0.763	0.598	0.41	FSKDIYKRVTG [PANK2_Y405_N404I_YF]	0.516	0.218	0.382	0.431	0.413	0.355	0.58	0.444	0.423	0.407	0.334	0.529	0.398
0.887	1.16	1.09	FSQQTYFRVSN [ABCD1_Y180_YF]	0.902	0.654	0.564	1.23	1.19	0.415	0.723	0.435	0.749	3.23	0.41	0.625	0.931
0.866	0.742	0.518	GDKENYGLPQP [BUB1_Y538_N534D]	0.873	0.509	0.794	0.452	0.567	0.419	0.859	0.461	0.469	0.715	0.432	0.632	0.433
0.903	0.742	0.582	GEDEPYSEPYA [APBA1_Y183]	1.35	0.542	0.673	0.516	0.756	0.618	1.19	0.55	0.477	1.15	0.531	0.845	0.551
0.874	1	0.549	GEVLVYAEDPA [FLNA_Y319_V320A]	1.21	0.607	0.53	0.496	0.704	0.385	1.05	0.593	0.543	0.814	0.408	0.496	0.553
0.753	0.744	0.47	GGFNNYGFGSD [HNRNPH3_Y159_N163S_YF]	0.656	0.7	0.812	0.48	0.533	0.39	0.762	0.458	0.454	0.68	0.474	0.575	0.426
0.682	0.503	0.34	GGGGGYNRSSG [FUS_Y232]	0.478	0.57	0.271	0.304	0.386	0.328	0.503	0.371	0.419	0.503	0.435	0.574	0.358
